Patent US11623951B2, “Antibodies to R-spondin 3” (National Health Research Institutes, priority 2017, dated 2023)
“Also recorded” adds a separate entry of the source.

T1: recombinant human RSPO3 protein (hRSPO3) (Homo sapiens, UniProt Q9BXY4)
T1 sequence (Q9BXY4 22-272): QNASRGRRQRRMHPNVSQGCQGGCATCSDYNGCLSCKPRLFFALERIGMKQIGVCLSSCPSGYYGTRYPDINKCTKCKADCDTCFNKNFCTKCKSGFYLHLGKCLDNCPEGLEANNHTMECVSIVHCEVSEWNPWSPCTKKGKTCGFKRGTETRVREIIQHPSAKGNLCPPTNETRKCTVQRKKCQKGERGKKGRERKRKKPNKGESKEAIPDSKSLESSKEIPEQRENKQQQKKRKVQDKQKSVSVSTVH

B1: rosmantuzumab (antibody, chains of the INN, looked up, V domains shown)
VH: QVQLVQSGAEVKKPGASVKVSCKASGYTFTDYSIHWVRQAPGQGLEWIGYIYPSNGDSGYNQKFKNRVTMTRDTSTSTAYMELSRLRSEDTAVYYCATYFANNFDYWGQGTTLTVSS
VL: DIQMTQSPSSLSASVGDRVTITCKASQSVDYDGDSYMNWYQQKPGKAPKLLIYAASNLESGVPSRFSGSGSGTDFTLTISPVQAEDFATYYCQQSNEDPLTFGAGTKLELK
B2: hB1: humanized α-RSPO3 antibody derived from murine clone B1; VH SEQ ID NO: 14, VL SEQ ID NO: 16 (antibody, V domains shown)
VH: QIQLQESGPGLVKPSESLSLTCSVTGYSITSGYYWNWIRQFPGNGLEWMGYISYDGTNNYNPSLKDRISITRDTSKNQFFLKLNSVTAADTATYYCSVLLIQYFNIWGKGTTVTVSS
VL: DIQMTQSPSSLSASVGERVTITCRTSESVNNFLAWFHQKPGKSPKLLVYHAKTLADGVSSRFSGSGSGTQYSLKINSLQPEDFGNYYCQHFWSIPWTFGGGTKLEIKR
modifications: Heavy chain variable region; Light chain variable region

Assays:
[1] = target: T1, recombinant human RSPO3 protein (hRSPO3); assay: Biacore T200 binding kinetics to immobilized hRSPO3; details: for equilibrium dissociation constants, KD (in words): Biacore T200; for koff (1/s, *10^−5) / kon (1/Ms, *10^6): Biacore T200, 25° C., 1:1 model
Description: FIG. 7 is a graph showing use of Biacore to measure the binding kinetics of α-RSPO3 Abs-antigen interaction. The binding sensorgrams were generated using a Biacore T200 and then fitted to a simple 1:1 interaction model. A series of concentrations of hB1 (0.39-6.25 nM) were injected in a single-cycle with no regenerating of the surface between injections. The association was monitored for 2 min, and the final dissociation time was 15 min hRSPO3 was immobilized on a CM5 chip at 27.5 RU.
The binding kinetics between α-RSPO3 Abs and recombinant human RSPO3 protein (hRSPO3) were performed at 25° C. using a Biacore T200 biosensor equipped with a CM5 Series S Sensor Chip (GE Healthcare). Running buffer was HBS-EP Buffer (0.01 M HEPES pH 7.4, 0.15 M NaCl, 3 mM EDTA, 0.005% v/v Surfactant P20) with final pH 7.4. hRSPO3 protein was immobilized on CM5 sensor chips with coating densities of about 27.5 response units (RU). The α-RSPO3 Abs were serially diluted 2-fold from 6.25 nM to 0.39 nM in HBS-EP and were injected over the chip surface for 120 s each at a flow rate of 30 μL/min, followed by a final 900 s dissociation phase. Obtained sensorgrams were corrected by double subtracting the signal obtained on a reference surface and the signal of the running buffer. Sensograms were fit globally with BIAcore T200 evaluation software 3.0 using 1:1 binding model to yield affinity constants (KD values) for α-RSPO3 Abs. Replicate measurements were made in separate experiments, using independently prepared α-RSPO3 Abs dilution series and huRSPO3-coated chip surfaces.

[2] = tested on: DLD-1 cells; assay: Wound healing (migration) assay in DLD-1 cells; assay type: cell-based, human; details: 100 μg/ml antibody, Wnt3a 20 ng/ml and RSPO3 50 ng/ml
Description: FIG. 11 is a graph showing the effects of different α-RSPO3 antibodies on wound healing in the DLD-1 cell model. The percentages of wound closure were calculated and shown in the bar graph.
DLD-1 cells were seeded at 40000 cells per well in Culture-Insert 2 Well (ibidi, Martinsried, Germany) with RPMI medium containing 10% FBS for 16 hours. After removing the culture insert, cells were either treated with 100 μg/ml control human IgG1 antibodies or 100 μg/ml anti-RSPO3 antibodies in low serum (0.5%) medium in the presence of 20 ng/ml Wnt3a and 50 ng/ml RSPO3. Samples were then subjected to live cell image time lapse microscopy system (Leica AF6000 LX) to observe migration of DLD-1 cells. Three positions of each well under 10× objective lens were selected at the beginning and phase images of these positions were acquired by Zyla 4.2 sCMOS camera every 30 minutes for up to 60 hours.

[3] = tested on: NCI-H2030 lung cancer xenograft; assay: RSPO^high NCI-H2030 lung cancer CDX model; assay type: in vivo, nude mice; details: for terminal average tumor volume: 25 mg/kg i.v. once a week, Day 29; for body weight loss: mouse, in vivo
Description: FIG. 14 is a graph showing the efficacy of hB1 in a RSPO^high NCI-H2030 Lung Cancer CDX model. Mice were treated with hB1 or 131R010 at 25 mg/kg, or control (vehicle) once a week for 4 weeks. On Day 28 of treatment, 7 mice from each of the vehicle, 131R010 and hB1 groups were sacrificed for tumor collection at 24 hours after the […] dose. Data are expressed as mean±SEM. On Day 51 of treatment, 7 mice from each of the Carboplatin, hB1, 131R010 and carboplatin in combination groups were sacrificed for tumor collection. Data are expressed as mean±SEM.
To evaluate the preclinical in vivo efficacy, RSPO^high NCI-H2030 lung cancer cell-derived xenograft (CDX) model was used in this study. Female nude mice were inoculated subcutaneously at the right flank with one fragment of NCI-H2030 (5*10^6) for tumor development. When the average tumor size reached about 250 mm^3, tumor-bearing mice were randomly allocated into groups and 25 mg/kg of the test articles, 50 mg/kg of carboplatin or vehicle (isotype IgG) were injected intravenously (i.v.) every week for 4 weeks. Tumor volume was measured by caliper every three days (one day dosing and 2 days off) and using the formula: TV=0.5×a×b^2, where a and b is the long and short diameters of the tumor, respectively. Animals were sacrificed due to tumor size reaching humane endpoints, and the last value of the tumor volume was carried forward until the end of the study.
Statistical analyses were including the mean and standard error, are provided for the tumor volume. Since the two treatment regimens were independent, for comparison between each treatment against control, an independent sample was performed. All data was analyzed using 2way ANOVA multiple comparisons by Prism. P<0.05 was considered to be statistically significant.

Row | Molecule | equilibrium dissociation constants, KD (in words) [1] | koff (1/s, *10^−5) [1] | kon (1/Ms, *10^6) [1] | wound healing activity of DLD-1 cells [2] | terminal average tumor volume [3] [mm^3] | body weight loss [3] | antitumor activity (in words) ([3]; single agent or with carboplatin 50 mg/kg)
1 | B1 | picomolar (pM) levels | 18.1 ± 0.1 1/s, *10^−5 | 9.4 ± 1.8 1/Ms, *10^6 | able to inhibit wound healing activity | 1327.4±194.3 | no severe body weight loss | 
2 | B2 | picomolar (pM) levels | 3.4 ± 0.1 1/s, *10^−5 | 1.7 ± 0.8 1/Ms, *10^6 | able to inhibit wound healing activity | 1124±471.8 | no severe body weight loss | significant antitumor activity; also recorded: better anti-cancer efficacy than rosmantuzumab
